System: MS2 coat protein
Experiment: apparent KD of MS2 coat protein; designed switch direction (-1 OFF switch, 1 ON switch): -1; higher = weaker reporter binding
Method in brief: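 The buffer was Tris-HCl pH 7.5 with KCl, MgCl2, BSA, DTT, tRNA and Tween-20. In it, SNAP-549-labelled MS2 coat protein was titrated in doubling steps from 0.7 or 1.5 nM to 3 µM over chip-bound RNA switches transcribed by stalled E. coli RNA polymerase on Illumina chips. Apparent KD is the per-design median over clusters of curve fits to normalised fluorescence.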

[1] = Eterna round: R95, input ligand: microRNA oligo, concentration not stated
[2] = Eterna round: R95, input ligand: FMN 200 uM
[3] = Eterna round: R95, input ligand: none
[4] = input ligand: microRNA oligo, concentration not stated

Sequence	apparent KD of MS2 coat protein [1] [nM]	apparent KD of MS2 coat protein [2] [nM]	apparent KD of MS2 coat protein [3] [nM]	apparent KD of MS2 coat protein (input ligand: FMN 200 uM) [nM]	apparent KD of MS2 coat protein (input ligand: none) [nM]	apparent KD of MS2 coat protein [4] [nM]
CAGGACAGAGGAUAUACAUAGAUACAGAUUCAUGUAGAACUACAUGAGGAUCACCCAUGUAGAAGGCUGUCCUG [Fiskers Ex 2 - 3] (puzzle: Exclusion 2)	27.8	–	–	–	–	–
CAGUACUACAAGCUAUGGGACAUGAGGAUCACCCAUGUUCGUCUUAUUGAUCUAGGUACGCUGACGUACCUAGAUCU [JL-sv1-2.19 Brourd mod] (puzzle: Sensor v3, turn-off variant 1)	27.8	16.9	15.9	–	–	–
CAGUACUACAAGCUUGGGAACAUGAGGAUCACCCAUGUUCGUCUUAUUGAUCUAGGUACGCUGACGUACCUAGAUCU [JL-sv1-2.17 Brourd mod] (puzzle: Sensor v3, turn-off variant 1)	27.1	16.5	14.7	–	–	–
CAGUACUGAGGAUAUACAUGAGGAUCACCCAUGUCUUCCAGCUAGGAUACUAGCAAAUGUAGAAGGCAGUACUG [Mat - Exclusion 3 - Eli Mod - D9] (Eterna round: R97, puzzle: Exclusion 3)	–	–	–	428	68.1	–
CAGUACUGAGGAUAUACAUGAGGAUCACCCAUGUGAAAUGCAUAGGAAACUAUGCUAUGUAGAAGGCAGUACUG [Eli x3 4.03] (Eterna round: R97, puzzle: Exclusion 3)	–	–	–	108	18.5	–
CAGUACUGAGGAUAUACAUGAGGAUCACCCAUGUGCUCUAGCUAGGAUACUAGCAUUAGUAGAAGGCAGUACUG [Fiskers Ex 3 828 mod 8] (Eterna round: R96, puzzle: Exclusion 3)	–	–	–	132	19.7	14.4
CAGUACUGAGGAUAUACAUGAGGAUCACCCAUGUGCUCUAGCUAGGAUACUAGCAUUAGUAGAAGGCAGUACUG [Fiskers Ex 3 828 mod 8] (puzzle: Exclusion 3)	15.2	–	–	–	–	–
CAGUACUGAGGAUAUACAUGAGGAUCACCCAUGUGUUCCAGCUAGGAAACUAGCUAAAGUAGAAGGCAGUACUG [salish99_ex3_r3_092x] (Eterna round: R96, puzzle: Exclusion 3)	–	–	–	–	–	17.7
CAGUACUGAGGAUAUACAUGAGGAUCACCCAUGUGUUCCAGCUAGGAAACUAGCUAAAGUAGAAGGCAGUACUG [salish99_ex3_r3_092x] (puzzle: Exclusion 3)	24.1	459	25	–	–	–
CAGUACUGAGGAUAUACAUGAGGAUCACCCAUGUGUUCCAGCUAGGAUACUAGCAAAGGAAGAAGGCAGUACUG [Mat - Exclusion 3 - Eli Mod - D2] (Eterna round: R97, puzzle: Exclusion 3)	–	–	–	19.4	18.9	–
CAGUCAGCGCAGGAUAUCUGCUCGGUGACAGACGGAGAAGGGUGCACAUGAGGAUCACCCAUGUGAAUCUCUAA [Eternabot (Original) Solution 3] (Eterna round: R97, puzzle: Exclusion 6)	–	–	–	21.4	28.5	–
CAGUCGAUAAGAUCAAUUAAUUAACAUGAGGAUCACCCAUGUGAGGAUAUCAGCUCGUGUAGAGCUGAGAAGGCACAACGACUG [ExNG3/17-A3] (Eterna round: R96, puzzle: Exclusion NG 3)	–	–	–	278	60.2	51.7
CAGUCGAUAAGAUCAAUUAAUUAACAUGAGGAUCACCCAUGUGAGGAUAUCAGCUCGUUUAGAGCUGAGAAGGCACAACGACUG [ExNG3/17-A2] (Eterna round: R96, puzzle: Exclusion NG 3)	–	–	–	305	37.9	32.4
CAGUUCUGACGGAGAUCCAACAUGAGGAUCACCCAUGUCUCAAAAGCUUUUUGCUCGUCUUAUCCUCCUCAGGACUC [Mat - Sensor, turn-off var - Eli Mod - D58] (Eterna round: R97, puzzle: Sensor, turn-off variant 1)	–	–	–	16.4	16.4	–
CAUACGGCAGGAUAUGCGUGGCCAUCUUAGCUCUACCUAAGACAUGAGGAUCACCCAUGUAGAAGGGUUACAUA [Eternabot (Original) Solution 41] (Eterna round: R97, puzzle: Exclusion 2)	–	–	–	20.5	19.8	–
CAUAGUAAUUAGGAUAUCUGCCGGCUGAGCCGAGGAGAAGGGAUUACAUGAGGAUCACCCAUGUGGUCCUAGAA [Lebireti] (puzzle: Exclusion 6)	20.1	31.3	19.9	–	–	–
CAUAUGUGAGGAUAUGACAAUGGUAUCUUCGGAUACCAUUGUCAGAAGGCACAUGAGGAUCACCCAUGUGGAUC [Exclusion 4 - Mod Brourd Ex 4-3: 20 v.5] (puzzle: Exclusion 4)	151	–	–	–	–	–
CAUAUUGUAGGAUAUAUUCGAAAGGUCCUCUUCCCAUACCGACAUGAGGAUCACCCAUGUAGAAGGAUAGUGCC [Eternabot (L2) Solution 13] (Eterna round: R97, puzzle: Exclusion 2)	–	–	–	48.9	53.6	–
CAUCCGGCAGGAUAUACAUGAGGAUCACCCAUGUCAGAAAGCAAAUUGUGCGACUCAGGUAGAAGGGUUGGACU [Ederusat] (puzzle: Exclusion 3)	21.1	–	–	–	–	–
CAUCUCGUAGGAUAUUCACAAAAGCACAUGAGGAUCACCCAUGUUAUCCGACAUGAUGCCGAAGAAGGACGAAAAC [Di] (puzzle: Exclusion 5)	79.8	107	78.9	–	–	–
CAUGAUCUUCGGAUCAUGUACAUGAGGAUCACCCAUGUUACGAGUUGAUUUUCAUACAAGCUUUUUGCUCGUCUUAU [Sensor v3 - Turn-off variant 1 - 27] (puzzle: Sensor v3, turn-off variant 1)	330	226	240	–	–	–
CAUGAUUGGCGAGGAUAUUGAUCUACAUGGCGACGAGAAGGCGCCUGUCACAUGAGGAUCACCCAUGUGAGUCUGGUGAAUGAG [Ex NG1 #85] (Eterna round: R96, puzzle: Exclusion NG 1)	–	–	–	67.2	42.6	25
CAUGAUUGGGAAGGAUAUUGACCUAGUUAGCGCCGAGAAGGUCCCUGUCACAUGAGGAUCACCCAUGUGAAUCUGGUGUUCGAG [Ex NG1 #94] (Eterna round: R96, puzzle: Exclusion NG 1)	–	–	–	36.7	19.7	17.9
CAUGCUUCAUAGGAUAUGGAAGACGUACCGUCGCUAGAAGGAUGAACAUGAGGAUCACCCAUGUAAUACAGGGC [Eternabot (L2) Solution 64] (Eterna round: R97, puzzle: Exclusion 6)	–	–	–	169	68.6	–
CAUGGAUGUGAGCCGCAUUACAUGAGGAUCACCCAUGUCAACAAGCUUUUUGCUUGUCUUACGCGGCGGCACCAGAA [Getelexe] (Eterna round: R96, puzzle: Sensor v3, turn-off variant 1)	–	–	–	13	14.9	6.81
